Results on 20 sequences are retold here after the DeepSol protein solubility set.

This data set can be described thus: soluble on expression in E. coli; label from the status in PepcDB or PDB records.
With “MLSSSGHAIRRGITTSAALSNKHAFIVGAARTPIGSFRSSLSSVTAPELASVAIKAALERGAVKPSSIQEVFLGQVCQANAGQAPARQAALGAGLDLSVAVTTVNKVCSSGLKAIILAAQQIQTGHQDFAIGGGMESMSQVPFYVQRGEIPYGGFQVIDGIVKDGLTDAYDKVHMGNCGEKTSKEMGITRKDQDEYAINSYKKSAKAWENGNIGPEVVPVNVKSKKGVTIVDKDEEFTKVNFDKFTSLRTVFQKDGTITAANASTLNDGAAAVIVASQEAVSEQSLKPLARILAYGDAATHPLDFAVAPTLMFPKILERAGVKQSDVAQWEVNEAFSCVPLAFIKKLGVDPSLVNPHGGAVSIGHPIGMSGARLITHLVHTLKSGQIGVAAICNGGGGSSGMVIQKL”, the “soluble on expression in E. coli” value is reported as “not soluble”.
Regarding “MLSTEDFDFDLPEELIAQTPLKDRASSRLLVVNKETGDMEDKHFHDILDELQPGDALVMNNTRVLPARLYGEKPETGGHLEVLLLTNTEGDTWETLIKPAKRAKVGTEIQFGDGRLKAVVKEELEHGGRIIEFKYDGIFLEILESLGEMPLPPYIKERLDDPDRYQTVYAEENGSAAAPTAGLHFTKELLEEIKAKGVHLVYLTLHVGLGTFRPVSVDNIEEHHMHSEFYRLTEEAAKQLNEVRQAGGRIVAVGTTSIRTLETIGTKFNGEIQADSGWTDIFITPGYQFKVVEAFSTNFHLPKSTLVMLVSAFAGKDLTLAAYQHAIEEKYRFFSFGDAMFIK”, the “soluble on expression in E. coli” value is listed as “not soluble”.
The value for “MLTCTVDTQFGRLTLREEAGALVSVSWGSAAREDASELLQRASLQVSEYDQGARQQFDLPVRIRGSAFQRAVCDAICAIPFGDTCTYGDIARALGVPAQAVGQACGANPIPIIIPCHRVMGAKGLTGFSGVGGVETKVALLRHEGAAGLLILEHHHHHH” was “not soluble”; that for “MLTLAEKLLLIGLNDETGKVHYQASTALPYGLAGAVLADLMLLGKVELQGKNIVVVDPKPVGQPIFDKALHIINKTPRKRNAKYWVQRLKRDLKTLRQDVLTLLIEQGILKEEKRKILGLFETRTYPAVDGEMEEQVKEKLRVLVLQPTEIEENKELAQERTLVLLSLVNACDLLRQVFDRQEARVVKKQVKHLTKDVPVSKAVKEMVDAINASVVLAITSAAVVTSSSSSSNLEHHHHHH” was “soluble”.
Take “MLTREDIFKHVKEKYGTSPDYPWEKYPNYASLRHTSNKKWYGLIMNVLPEKLGLDGHGEIDILNLKCPPEISDRLRNGENILPGYHMDKEHWISIVLERTDPEGEIYNLIEQSFHLTKLEHHHHHH”: the “soluble on expression in E. coli” value is “soluble”.
In the case of “MLTVHHLNQSRSQRILWALEELALPYQIVRYQREKTMLAPPALKKVHPLGKSPVIEDHGMVIAESGAILEYLQDTYDSIGRFKPADAQGKQHYRFWLHYAEGSLMPLLLMRLLFTSLGKPPVPLGLRTLGGVIGKGAQKAYLNPQLETHARFIDGHLANHPWFAGEQLSMADIQMSFPLFALLARGGIAHLDHINAWKARVEMRPAWQRAIQQGGPFTIPGG” it was “not soluble”; in that of “MLVEFDNPPLCMKSNKDGSRLVVGFVDGSIRFYDTQQHEEEFQEIWKFQTKSSIRGVDLDEHKKRVYAVTKNRSLCVFDIDTGKRVRCILKCHRSVPTAICTLPPTALKSQQLATADESGEVKTWNLDPEVASENANIRKWQEQDEDINDLKVDVKSNLLATSSDGTLGAYDLRKAKLKMRSELMHSELYSVCGTNRSVYVGGEDGYVEVFNLNEYGNLLERVESGFEMGVNGIVELRSGLLGLTSQGSNRMRLLNVQPSKRLGYAGYHGDEKSDDDGIDAITISTDKSTVFTMISMSCTIKKWDMGPIIDEIPILRAQDAKSKKMRKTEGFFDGLVGPKNDSDSDDDDEPKSKKRRNDEDSDEEIDEEEQEEDDEEEEEDSD”, “not soluble”; in that of “MMAQEISNLVKKYNVTWQQTMLRIYDPKETVEFYEKNFGMINIHTYHFNEYNFSLYFLITPPYDEEERKKLPEPNTKESEKYLWNLNTVCLELTYNHNSQEKLSNGNNENDRGFGHIAFNCNDVIEQCDNLFKKNVKFHKLPHETKMKTIGFALDPNNYWIEIVKRSNQVKWKNYKNITNFSQTMIRVKNPEKSLYFYIHILGMKLIHVKHCSDFSLYFLKSNYACAENNKEMIEDQSNKNTNEIYDFNSLKNSYQTDEDYENFKQSWEPVLELTHNHGTEDDDNFSYHNGNTEPRGFGHIGFLVNDLENYCKELETLNVTFKKKVTEGLMKNIAFIYDPDNYVIELIQRDTSFIAK”, “not soluble”.
As to “MMEDDGQPRTLYVGNLSRDVTEVLILQLFSQIGPCKSCKMITEHTSNDPYCFVEFYEHRDAAAALAAMNGRKILGKEVKVNWATTPSSQK”, the “soluble on expression in E. coli” value was “soluble”.
Consider “MMINQKNDIPLCAQEFSKLTDPLYIKKICLEKVHDWSRCNEDDVCVNQILSGLTNQLFEVSIKEDTAIEYRITRRHVLFRIYGKDVDALYNPLSEFEVYKTMSKYRIAPLLLNTFDGGRIEEWLYGDPLSIDDLKNKSILVGIANVLGKFHTLSRKRHLPEHWDKTPCVFKMMDRWRLAVSNYKNLDKVTLDINKYIQESHKFLKFIKIYTQIENIANDIVFCHNDLQENNIMNTNKCLRLIDFEYSGYNFLSADIANFFIETTIDYSYNAYPFFIINKKNYISYESRILFVTTYLSKYLDDSTAASDQDIIDQFLEAIEVQALGLHLIWAFWSIIRGYQTKSYNEFDFFLYAKERLKMYDEQKQYLMSKNIIKD”, for which the “soluble on expression in E. coli” value was “not soluble”.
Consider “MMKAKVIDAVSFSYILRTVGDFLSEANFIVTKEGIRVSGIDPSRVVFLDIFLPSSYFEGFEVSQEKEIIGFKLEDVNDILKRVLKDDTLILSSNESKLTLTFDGEFTRSFELPLIQVESTSPPSVNLEFPFKAQLLTITFADIIDELSDLGEVLNIHSKENKLYFEVIGDLSTAKVELSTDNGTLLEASGADVSSSYGMEYVANTTKMRRASDSMELYFGSQIPLKLRFKLPQEGYGDFYIAPRAD”, for which the “soluble on expression in E. coli” value was “soluble”.
On to “MMKFDWNNPYPSTRIPVFARNVVATSHPLAAQAGLRILALGGNAADAAVASAATLALVEPASNGLGSDCFALVWDGARLHGLNASGTAPAAWSPGYFQRKHQGAIPLRGWDSVTIPGCVAGWASLHDKLGSLPFADVLAPAIEYAERGFAVPPTVQRRWADQVDPLRSLPGFAEHFLPHGRAPEVGEHFVLAGAAATLRRIAASGGRDFYEGETAQKLVAHAQAHEAALTLGDLRDYAPQWVEPISQAYRGHALHQLPPNGQGLAALIALGIVEHFDLASRPAEHPDTQHILIEAMKLAFADVHAHVADAAHIRIRVEQLLDPAYLAERARLIDLRRARVYNAAQAPQGGTVYLACADRNGMMVSFTQSNYMGFGSGIVVPGTGISLQNRGCCFSMDPDHPNVVGGGKRPFHTGIPAFLTQDGAPLMSFGIMGGNMQPQGHLQALVRMLDYRQQPQAACDAPRWKWNRGLSVDIEAAMPAQVTDALRARGHIVEVAAPADKDFGSGQFIWRLGDPAVDGYVAASDSRRDGLAAGFLEHHHHHH”, for which the “soluble on expression in E. coli” value is on record as “not soluble”.
In the case of “MMKPPSAIMETALYADDLDAAEAFYRDVFGLEMVLKLPGQLVFFKCGRQMLLLFDPQESSRADANNPIPRHGAVGQGHFCFYADDKAEVDEWKTRFEALEIPVEHYHRWPNGSYSVYIRDPAGNSVEVGEGKLWGFE” it was “not soluble”.
For the sequence “MMKRALTGIQASGKQHLGNYLGVMQSLIELQEQCQLFVFVADLHSITVDFQPQALKQNNFDLVRTLLAVGLDPQKACLFLQSDLLEHSMMGYLMMVQSNLGELQRMTQFKAKKAEQTRNPNGTLNIPTGLLTYPALMAGDILLYQPDIVPVGNDQKQHLELTRDLAQRIQKKFKLKLRLPQFVQNKDTNRIMDLFDPTKKMSKSSKNQNGVIYLDDPKEVVVKKIRQATTDSFNKIRFAPKTQPGVTNMLTILKALLKEPVNQSLTNQLGNDLEAYFSTKSYLDLKNALTEATVNLLVNIQRKREQISREQVFNCLQAGKNQAQATARTTLALFYDGFGLGSQNIK”, the “soluble on expression in E. coli” value was “soluble”.
In the case of “MMNASTKFSDNYDVKEELGKGAFSVVRRCVHKTTGLEFAAKIINTKKLSARDFQKLEREARICRKLQHPNIVRLHDSIQEESFHYLVFDLVTGGELFEDIVAREFYSEADASHCIQQILESIAYCHSNGIVHRDLKPENLLLASKAKGAAVKLADFGLAIEVNDSEAWHGFAGTPGYLSPEVLKKDPYSKPVDIWACGVILYILLVGYPPFWDEDQHRLYAQIKAGAYDYPSPEWDTVTPEAKSLIDSMLTVNPKKRITADQALKVPWICNRERVASAIHRQDTVDCLKKFNARRKLKAAISAVKMVTRMSGVLRTSDSTGSVASNGSTTHDASQVAGTSSQPTSPAAEVYPNVLLFNPQKFPRNCVHPFTTHPYYSPKESSKKKLFFTLLFEVCPHTSRSHILLRDNTKNIYHPYHCFTNKMSNYERAAPSSHGSSTTKKIANAIADLVIRRSSPSIRRKTEADVHNSNRNRKVSAPANLQHALVPVIDVVVATGALASSSVDNLSASTSSDLGRNLLNKKEQGPPSTIKESSESSQTIDDNDSEKGGGQLKHENTVVRADGATGIVSSSNSSTASKSSSTNLSAQKQDIVRVTQTLLDAISCKDFETYTRLCDTSMTCFEPEALGNLIEGIEFHRFYFDGNRKNQVHTTMLNPNVHIIGEDAACVAYVKLTQFLDRNGEAHTRQSQESRVWSKKQGRWVCVHVHRSTQPSTNTTVSEF”, the “soluble on expression in E. coli” value is recorded as “not soluble”.
In the case of “MMRNEHVAKGITGVSWYDFKQKLKYKAECGNMEFIEIGRFDPSFEIWSRCGWIDYNLKLSDRIFRCENCGLVIDRDLNTAINISNMELKKVGKGIPEFTPVDIATAADPTIRTGTASSRSMNREPPKPKRLEHHHHHH” it was “not soluble”; in that of “MMRNFGREFLEETSIFENKTCLIWRDREISFKEFHEYIGKWKNVLDEQKTKTTNPLRIALFCTNSPDILAIIVAGQLSGVTVIPLNPSYKKYEIDEYISKSIANFIIVSDDVDLDKFEEREVNLISELFTSNVTPSSTASTPENQGVIVFFSSGTTGPPKQFEYTQRILCSQIDQIKAIRSDPRFFSPSTDDICYGVLPFFHAGGLITILSMIFSGCTVLINERWNEHEFLANCQNYKVSVLFLVPPVLNFFANHPLVSSYDLSALKTIYVGAAASPPENFAKVAERLPELENLIQLYGTSECGVLLCSTGKGKASGKTVGWPFPFVELKINPENNEIFVKSATAMEEGFMETGDLGCLSFKTIELMIVGRSKEMMKIRGWQVNPNEVEDVIRKVEGVLDCAVYQNQEKLTAKIIGNPDSKADIFKIVKDNLASYKQLDDVIFVEELPRNPSGKLVRHMLH”, “not soluble”.
For “MMRVKFNGKELDTDFKTSLEFFENISKNENDVWIINGFATKENIALNENDELFCIEKNTLPPKDALDAMMRARHTPKLHDKLKNGRVAVCGLGGLGSHIAINLARSGVGYLKLIDFDVIEPSNLNRQAYRVSDLGKFKTEALKEQISEINPYISVEICTLKIDEDNLESLFKDIDIVCEAFDSAIAKAMIAQNFHRFYKDGILICASGLAGYGDSNSIQTRKIAKNFYVCGDLVNGAKLGNGLMAPRVNICAGHQSNLVLELLANKELEHHHHHH”, the “soluble on expression in E. coli” value was “soluble”.
As to “MMSTSDRSRLPLVYACSGCSSVAQLANAFAVRLDRSGQAEMSCISGVGGRVPALTRIAQSGRPILAIDGCQLACVKACLEGVGVVASRHLVLNRIGATKRQHGECTEAEEAATWQSIKLALSEILPVSESVVSN”, the “soluble on expression in E. coli” value was “soluble”.
For the sequence “MMTADAGICRPFKTKPARTIFGRFPARTVCLCASAIWTAAKSRCGWTAGVPSSLPTLPHPANAIPPNTVCSETQPSGTRKAAKPFSALPMPTAIRSKLPAAPVKRGSLFEPPSRFFGRFFVSDGRFFVSDLFCSSASGRVRAA”, the “soluble on expression in E. coli” value was “not soluble”.
